{"source": "patent US20220144936A1", "key": {"[1]": {"molecular_target": "recombinant human IL17A/F dimer protein (SinoBiological, Inc., CT047-HNAE) (human) (UniProt Q16552)", "sequence (Q16552 24-155 limits assumed, chain 1 of 2)": "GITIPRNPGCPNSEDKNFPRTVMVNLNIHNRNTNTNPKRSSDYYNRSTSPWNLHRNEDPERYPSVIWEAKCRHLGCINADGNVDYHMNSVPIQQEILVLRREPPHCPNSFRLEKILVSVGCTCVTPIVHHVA", "sequence (Q96PD4 31-163 limits assumed, chain 2 of 2, further chain)": "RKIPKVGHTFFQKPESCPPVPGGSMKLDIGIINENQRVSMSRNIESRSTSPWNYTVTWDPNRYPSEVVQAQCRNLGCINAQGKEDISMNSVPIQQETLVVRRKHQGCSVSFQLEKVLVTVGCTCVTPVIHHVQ", "assay": "ELISA: IL17A/F coated at different concentrations, antibody fixed at 2 µg/mL, anti-human IgG Fc/HRP; EC50 is on the antigen concentration"}, "[2]": {"molecular_target": "recombinant human IL17A protein (human) (UniProt Q16552)", "sequence (Q16552 24-155 limits assumed)": "as the sequence (Q16552 24-155 limits assumed, chain 1 of 2) above", "assay": "ELISA: IL17A coated at different concentrations, antibody fixed at 2 µg/mL, anti-human IgG Fc/HRP; EC50 is on the antigen concentration"}, "[3]": {"molecular_target": "recombinant human IL17A/F dimer protein (SinoBiological, Inc., CT047-HNAE) (human) (UniProt Q16552)", "assay": "competition ELISA: IL17RA-Fc coated (competitor), IL17A/F-Biotin at 0.8 µg/mL, antibody varied"}, "[4]": {"molecular_target": "recombinant human IL17A protein (human) (UniProt Q16552)", "assay": "cell-based or functional assay"}, "[5]": {"molecular_target": "recombinant human IL17A protein (human) (UniProt Q16552)", "assay": "Octet (BLI), biotinylated IL17A, antibody 0.90-13.9 nM"}, "[6]": {"molecular_target": "recombinant human IL17A/F dimer protein (SinoBiological, Inc., CT047-HNAE) (human) (UniProt Q16552)", "assay": "Octet (BLI), biotinylated IL17A/F, antibody 0.90-13.9 nM"}, "[7]": {"molecular_target": "recombinant human IL17A/F dimer protein (SinoBiological, Inc., CT047-HNAE) (human) (UniProt Q16552)", "assay": "cell-based or functional assay"}, "[8]": {"molecular_target": "recombinant human IL17A protein (human) (UniProt Q16552)", "assay": "competition ELISA: IL17A coated, competitor IL17RA-His-biotin at 2 µg/mL, antibody varied"}}}
{"substance": "COSENTYX biosimilar (SinoCelltech Co., Ltd.) (antibody)", "values": [{"measurement": "EC50", "setting": "[1]", "value": 0.0639, "unit": "mg/L"}, {"measurement": "EC50", "setting": "[2]", "value": 0.0748, "unit": "mg/L"}]}
{"substance": "Taltz biosimilar (SinoCelltech Co., Ltd.) (antibody)", "values": [{"measurement": "maximum inhibition rate", "setting": "[3]", "value": 75, "unit": "%"}, {"measurement": "EC50 of blocking IL17A-induced IL-6 secretion of HFF cells", "setting": "[4]", "value": 0.247, "unit": "mg/L"}, {"measurement": "maximum inhibition rate of IL17A-induced IL-6 secretion of HFF cells", "setting": "[4]", "value": 97.3, "unit": "%"}]}
{"substance": "COSENTYX (Norvatis, SHM12) (antibody)", "values": [{"measurement": "Kd", "setting": "[5]", "value": 0.0955, "unit": "nM"}, {"measurement": "Kd", "setting": "[6]", "value": 1.1, "unit": "nM"}, {"measurement": "EC50 (µg/mL), blocking IL17A/F-induced IL6 secretion of HFF cells", "setting": "[7]", "value": 2.25, "unit": "µg/mL"}, {"measurement": "Maximum neutralization rate (%), IL17A/F-induced IL6 secretion of HFF cells", "setting": "[7]", "value": 79.5, "unit": "%"}, {"measurement": "EC50 (µg/mL), blocking IL17A-induced IL6 secretion of HFF cells", "setting": "[4]", "value": 0.22, "unit": "µg/mL"}, {"measurement": "Maximum neutralization rate (%), IL17A-induced IL6 secretion of HFF cells", "setting": "[4]", "value": 51.6, "unit": "%"}]}
{"substance": "Taltz (Eli Lilly) (antibody)", "values": [{"measurement": "IC50", "setting": "[8]", "value": 0.5, "unit": "mg/L"}, {"measurement": "maximum inhibition rate", "setting": "[8]", "value": 89.5, "unit": "%"}, {"measurement": "EC50 (µg/mL), blocking IL17A/F-induced IL6 secretion of HFF cells", "setting": "[7]", "value": 1.1, "unit": "µg/mL"}, {"measurement": "Maximum neutralization rate (%), IL17A/F-induced IL6 secretion of HFF cells", "setting": "[7]", "value": 76.3, "unit": "%"}, {"measurement": "EC50 (µg/mL), blocking IL17A-induced IL6 secretion of HFF cells", "setting": "[4]", "value": 0.19, "unit": "µg/mL"}, {"measurement": "Maximum neutralization rate (%), IL17A-induced IL6 secretion of HFF cells", "setting": "[4]", "value": 95.9, "unit": "%"}]}
